Molecular target: 488-labeled fibrillized-Aβ (1-42) (Anaspec), P05067
Sequence (P05067 whole entry, looked up, tested part not stated): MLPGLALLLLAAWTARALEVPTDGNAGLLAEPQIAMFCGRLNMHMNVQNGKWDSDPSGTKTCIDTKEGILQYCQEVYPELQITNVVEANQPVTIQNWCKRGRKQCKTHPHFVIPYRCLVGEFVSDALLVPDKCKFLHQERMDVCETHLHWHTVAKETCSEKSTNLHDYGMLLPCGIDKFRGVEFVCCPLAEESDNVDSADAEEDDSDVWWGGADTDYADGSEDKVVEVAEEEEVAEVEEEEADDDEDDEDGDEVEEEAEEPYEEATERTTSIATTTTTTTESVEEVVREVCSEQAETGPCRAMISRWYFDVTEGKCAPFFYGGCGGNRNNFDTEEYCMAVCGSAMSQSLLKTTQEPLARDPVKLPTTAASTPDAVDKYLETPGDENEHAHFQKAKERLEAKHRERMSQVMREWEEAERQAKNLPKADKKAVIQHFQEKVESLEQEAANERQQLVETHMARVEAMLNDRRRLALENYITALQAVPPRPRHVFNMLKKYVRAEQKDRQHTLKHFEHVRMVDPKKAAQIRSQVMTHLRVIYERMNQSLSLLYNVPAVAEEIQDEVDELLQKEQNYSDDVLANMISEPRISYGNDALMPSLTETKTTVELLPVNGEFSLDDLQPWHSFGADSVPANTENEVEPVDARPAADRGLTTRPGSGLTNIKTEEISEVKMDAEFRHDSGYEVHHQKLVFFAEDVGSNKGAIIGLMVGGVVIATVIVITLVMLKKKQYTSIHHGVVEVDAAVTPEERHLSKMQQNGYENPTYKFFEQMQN

Protein | Aβ phagocytosis over time (slope of internalized fluorescent Aβ signal)
secreted Neprilysin (lacks transmembrane and cytoplasmic domains; secretion signal at N-terminus) (protein) YDDGICKSSDCIKSAARLIQNMDATTEPCTDFFKYACGGWLKRNVIPETSSRYGNFDILRDELEVVLKDVLQEPKTEDIVAVQKAKALYRSCINESAIDSRGGEPLLKLLPDIYGWPVATENWEQKYGASWTAEKAIAQLNSKYGKKVLINLFVGTDDKNSVNHVIHIDQPRLGLPSRDYYECTGIYKEACTAYVDFMISVARLIRQEERLPIDENQLALEMNKVMELEKEIANATAKPEDRNDPMLLYNKMTLAQIQNNFSLEINGKPFSWLNFTNEIMSTVNISITNEEDVVVYAPEYLTKLKPILTKYSARDLQNLMSWRFIMDLVSSLSRTYKESRNAFRKALYGTTSETATWRRCANYVNGNMENAVGRLYVEAAFAGESKHVVEDLIAQIREVFIQTLDDLTWMDAETKKRAEEKALAIKERIGYPDDIVSNDNKLNNEYLELNYKEDEYFENIIQNLKFSQSKQLKKLREKVDKDEWISGAAVVNAFYSSGRNQIVFPAGILQPPFFSAQQSNSLNYGGIGMVIGHEITHGFDDNGRNFNKDGDLVDWWTQQSASNFKEQSQCMVYQYGNFSWDLAGGQHLNGINTLGENIADNGGLGQAYRAYQNYIKKNGEEKLLPGLDLNHKQLFFLNFAQVWCGTYRPEYAVNSIKTDVHSPGNFRIIGTLQNSAEFSEAFHCRKNSYMNPEKKCRVW | Decreasing slope over time, as observed in sNEP and NEP data, indicates increasing degradation of Aβ following internalization
membrane-bound Neprilysin (full-length Neprilysin; includes transmembrane and cytoplasmic domains) (protein) GKSESQMDITDINTPKPKKKQRWTPLEISLSVLVLLLTIIAVTMIALYATYDDGICKSSDCIKSAARLIQNMDATTEPCTDFFKYACGGWLKRNVIPETSSRYGNFDILRDELEVVLKDVLQEPKTEDIVAVQKAKALYRSCINESAIDSRGGEPLLKLLPDIYGWPVATENWEQKYGASWTAEKAIAQLNSKYGKKVLINLFVGTDDKNSVNHVIHIDQPRLGLPSRDYYECTGIYKEACTAYVDFMISVARLIRQEERLPIDENQLALEMNKVMELEKEIANATAKPEDRNDPMLLYNKMTLAQIQNNFSLEINGKPFSWLNFTNEIMSTVNISITNEEDVVVYAPEYLTKLKPILTKYSARDLQNLMSWRFIMDLVSSLSRTYKESRNAFRKALYGTTSETATWRRCANYVNGNMENAVGRLYVEAAFAGESKHVVEDLIAQIREVFIQTLDDLTWMDAETKKRAEEKALAIKERIGYPDDIVSNDNKLNNEYLELNYKEDEYFENIIQNLKFSQSKQLKKLREKVDKDEWISGAAVVNAFYSSGRNQIVFPAGILQPPFFSAQQSNSLNYGGIGMVIGHEITHGFDDNGRNFNKDGDLVDWWTQQSASNFKEQSQCMVYQYGNFSWDLAGGQHLNGINTLGENIADNGGLGQAYRAYQNYIKKNGEEKLLPGLDLNHKQLFFLNFAQVWCGTYRPEYAVNSIKTDVHSPGNFRIIGTLQNSAEFSEAFHCRKNSYMNPEKKCRVW | Decreasing slope over time, as observed in sNEP and NEP data, indicates increasing degradation of Aβ following internalization
